The values below come from article PMC5774762.

Assay [1] deals with SUMO1 conjugated to agarose beads (UniProt P63165). The assay is described as follows: pull-down; SUMO1 beads with 2.0 M urea, 5 mM TCEP; quantitated against the reaction without urea.
The target of assay [2] is biotinylated SUMO1 (UniProt P63165). The assay can be described thus: BLI; biotinylated SUMO1 on streptavidin sensors (Octet QK); UTAG as analyte 4-250 nM; 25°C; HBS-T (10 mM HEPES pH 7.4, 150 mM NaCl, 0.05% Tween 20); association 300 s, dissociation 300 s; global single-state fit.
Assay [3] deals with SUMO1 conjugated to agarose beads (UniProt P63165). The assay is described as follows: pull-down; SUMO1-conjugated agarose beads in buffer with hydrogen peroxide (0.6% in the text, 1% in the legend) instead of TCEP; quantitated from the stained gel.
Assay [4] shares this target. The assay is described as follows: pull-down; SUMO1 beads with various concentrations of hydrogen peroxide (0.006% named in the text); quantitated from the stained gel.
Assay [5] shares this target. The assay can be described thus: pull-down; SUMO1 beads, with TCEP, at 42°C; bound UTAG quantitated from the stained gel against room temperature.
Assay [6] concerns the target SUMO1 (Homo sapiens) (UniProt P63165). The note with it: cited from earlier work.
For assay [7], the target named is SUMO1 conjugated to agarose beads (UniProt P63165). The assay can be described thus: pull-down; SUMO1 beads, 45 min in the presence of hydrogen peroxide (concentration not told); percent of total protein bound.
The target is the same in assay [8]. The assay can be described thus: pull-down; SUMO1 beads, binding of KmUTAG over time (min); percent of total protein bound.

In assay [1], “ScUTAG, catalytically inactive (C580S) UD domain of Saccharomyces cerevisiae Ulp1, MBP/His6 fusion (from UniProt Q02724 1-621) (domain or fragment)” showed a percent reduction of binding in 2M urea of 82%. In assay [2], the equilibrium dissociation constant (Kd) is 2 nM, the koff was 4.2e-05 s⁻¹ and the kon is 21000 M⁻¹ s⁻¹. Further, the percent of binding left in the presence of 0.6% H2O2 in assay [3] came to 17%. The same substance gave a percent reduction of binding with 0.006% peroxide in assay [4] of 50%. The substance also showed a percent reduction of binding at 42°C against room temperature in assay [5] of 87%.
Regarding ScUTAG (from UniProt Q02724), the Kd in assay [6] is 12.8 nM.
Substance “KmUTAG, catalytically inactive (C517S) UD domain of Kluyveromyces marxianus Ulp1, MBP/His6 fusion (from UniProt A0ABX6EQA7 1-555) (domain or fragment)” registered a percent reduction of binding in 2M urea in assay [1] of 23%. In addition, the percent of the protein bound after 45 minutes in the presence of peroxide in assay [7] was 60%. In assay [2], the KD after elimination of the top two analyte traces was 8.7 nM, the Kd came out at 8.7 nM, the koff came to 0.00084 s⁻¹ and the kon was determined as 96000 M⁻¹ s⁻¹. In assay [8], this substance had a percent of the protein bound after 45 minutes of 70% and a percent of the protein bound within 15 minutes of 50%. This substance showed a percent reduction of binding at 42°C against room temperature in assay [5] of 25%.
